{
  "source": "patent US20190085075A1",
  "about": "(published 2019)",
  "binders": {"B1": {"name": "LAG-3 mAb A (25F7, BMS-986016, Medarex/BMS) (antibody, V domains shown)", "VH": "QVQLQQWGAGLLKPSETLSLTCAVYGGSFSDYYWNWIRQPPGKGLEWIGEINHNGNTNSNPSLKSRVTLSLDTSKNQFSLKLRSVTAADTAVYYCAFGYSDYEYNWFDPWGQGTLVTVSS", "VL": "EIVLTQSPATLSLSPGERATLSCRASQSISSYLAWYQQKPGQAPRLLIYDASNRATGIPARFSGSGSGTDFTLTISSLEPEDFAVYYCQQRSNWPLTFGQGTNLEIK", "notes": "also called LAG-2 mAb A"}},
  "key": {"[1]": {"target": "T1, His-tagged soluble human LAG-3 (shLAG-3-His) (human, UniProt P18627 23-450)", "T1 construct": "also called soluble human LAG-3-His fusion protein; extracellular domain of human LAG-3 fused to a His tag; not shown: His tag", "T1 sequence": "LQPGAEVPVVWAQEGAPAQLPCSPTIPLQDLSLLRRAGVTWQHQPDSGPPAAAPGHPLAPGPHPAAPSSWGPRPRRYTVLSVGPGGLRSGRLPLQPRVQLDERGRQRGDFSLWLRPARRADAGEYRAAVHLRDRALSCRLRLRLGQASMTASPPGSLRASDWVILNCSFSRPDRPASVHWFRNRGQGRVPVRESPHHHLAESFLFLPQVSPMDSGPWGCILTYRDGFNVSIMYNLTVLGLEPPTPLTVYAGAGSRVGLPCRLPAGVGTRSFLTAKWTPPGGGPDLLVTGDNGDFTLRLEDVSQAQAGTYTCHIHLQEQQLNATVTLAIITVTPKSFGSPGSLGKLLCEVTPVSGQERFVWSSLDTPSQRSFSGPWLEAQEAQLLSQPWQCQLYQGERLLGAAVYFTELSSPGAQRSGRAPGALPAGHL", "assay": "Biacore; antibody captured (capture surface not marked for this row), shLAG-3-His injected"}, "[2]": {"target": "T2, soluble human LAG-3 fusion protein (extracellular domain of human LAG-3 fused to murine IgG2a) (human; murine, UniProt P18627 23-450)", "T2 construct": "also called human LAG-3-murine IgG2a fusion protein; not shown: murine IgG2a", "T2 sequence": "T1 sequence", "assay": "Biacore; human LAG-3 ECD-murine IgG2a captured on Fab2 goat-anti-mouse Fc, antibody injected"}, "[3]": {"target": "T3, soluble cynomolgus monkey LAG-3 fusion protein (extracellular domain of cynomolgus monkey LAG-3 fused to … (cynomolgus monkey; murine)", "T3 construct": "extracellular domain; also called cynomolgus LAG-3-murine IgG2a fusion protein", "assay": "Biacore; cynomolgus LAG-3 ECD-murine IgG2a captured on Fab2 goat-anti-mouse Fc, antibody injected"}},
  "data": [
    {"binder": "B1", "values": [
      {"measurement": "Kd", "setting": "[1]", "value": 600, "unit": "pM"},
      {"measurement": "Kd", "setting": "[2]", "value": 160, "unit": "pM"},
      {"measurement": "Kd", "setting": "[3]", "value": 458000, "unit": "pM"}
    ]}
  ]
}
